US20150165065A1 (AVIDBIOTICS, published 2015)
Values belong to the molecule of their own block, whether it stands above or below them.

Legend:
FGFR3 (coated on wells) [1] = target: FGFR3 (coated on wells) (UniProt P22607); assay: ELISA on FGFR3-coated wells after 1 hour at 60 C and 1 hour back at room temperature [panel A]
FGFR3 (coated on wells) [2] = target: T1, FGFR3 (coated on wells) (UniProt P22607 23-375, limits assumed); assay: ELISA on FGFR3-coated wells (2 ug/ml), bound sMICA detected with NKG2D-Fc and anti-Fc-HRP
T1 construct: Coated at 2 ug/ml on Maxisorp plates; also called Fibroblast Growth Factor Receptor 3
T1 sequence (looked up): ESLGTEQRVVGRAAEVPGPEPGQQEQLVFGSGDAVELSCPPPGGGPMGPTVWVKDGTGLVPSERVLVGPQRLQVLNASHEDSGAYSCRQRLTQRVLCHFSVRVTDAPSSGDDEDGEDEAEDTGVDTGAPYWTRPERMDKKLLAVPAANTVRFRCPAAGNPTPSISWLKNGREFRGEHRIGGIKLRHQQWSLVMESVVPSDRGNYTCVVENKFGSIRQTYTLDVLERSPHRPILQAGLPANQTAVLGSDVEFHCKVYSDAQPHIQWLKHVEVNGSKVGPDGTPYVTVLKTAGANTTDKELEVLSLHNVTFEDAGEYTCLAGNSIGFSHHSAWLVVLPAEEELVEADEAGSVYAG
Method: The purified MICA-α3-iFv proteins were tested in a FGFR3-binding ELISA to confirm simultaneous binding to the FGFR3 target and the NKG2D receptor. FGFR3 in phosphate buffered saline (PBS) was coated onto Maxisorp plates at 2 ug/ml concentration. Each MICA protein was titrated, allowed to bind FGFR3 for 1 hour, and washed to remove unbound sMICA protein. The bound MICA-α3-iFv protein was detected using NKG2D-Fc and anti-Fc-HRP conjugate.

FGFR3 (coated on wells) [3] = target: T1, FGFR3 (coated on wells); assay: ELISA on FGFR3-coated wells after 1 hour at 80 C and 1 hour back at room temperature [panel B]

EC50 (read off the curve) (FGFR3 (coated on wells) [1]): 5 nM
Molecule: MICA-scFv (traditional scFv constructed from MAbR3 fused to the C-terminus of soluble MICA) (from UniProt Q29983 24-307) (designed binder)

EC50 (read off the curve) (FGFR3 (coated on wells) [2]): ~1 nM
B1: MICA-α3-iFv.1 (designed binder)
chain: EPHSLRYNLTVLSWDGSVQSGFLTEVHLDGQPFLRCDRQKCRAKPQGQWAEDVLGNKTWDRETRDLTGNGKDLRMTLAHIKDQKEGLHSLQEIRVCEIHEDNSTRSSQHFYYDGELFLSQNLETKEWTMPQSSRAQTLAMNVRNFLKEDAMKTKTHYHAMHADCLQELRRYLKSGVVLRRTVPPMVQVTRSEASGDRVTITCRASQDVSTAVAWYQQKPGKAPKLLIYSASFLYSGVPSRFSGSGSGTDFTLTISSLQPEDFATYYCQQSYTTPPTFGQGTKVEIKGGSSRSSSSGGGGSGGGGEVQLVESGGGLVQPGGSLRLSCAASGFTFTSTGISWVRQAPGKGLEWVGRIYPTNGSTNYADSVKGRFTISADTSKNTAYLQMNSLRAEDTAVYYCARTYGIYDLYVDYTEYVMDYWGQGTLVTVSSGGSSRSSSSGGGGSGGGGDIQMTQSPSSLSASGQITVTCRASGFYPWNITLSWRQDGVSLSHDTQQWGDVLPDGQGTYQTWVATRISQGEEQRFTCYMEHSGQHSTHPVPSGKGSHHHHHH

EC50 (read off the curve) (FGFR3 (coated on wells) [2]): ~2 nM
EC50 (read off the curve) (FGFR3 (coated on wells) [3]): ~5 nM
B2: MICA-α3-iFv.2 (designed binder)
chain: EPHSLRYNLTVLSWDGSVQSGFLTEVHLDGQPFLRCDRQKCRAKPQGQWAEDVLGNKTWDRETRDLTGNGKDLRMTLAHIKDQKEGLHSLQEIRVCEIHEDNSTRSSQHFYYDGELFLSQNLETKEWTMPQSSRAQTLAMNVRNFLKEDAMKTKTHYHAMHADCLQELRRYLKSGVVLRRTVPPMVQVTRSEASGGSGDRVTITCRASQDVSTAVAWYQQKPGKAPKLLIYSASFLYSGVPSRFSGSGSGTDFTLTISSLQPEDFATYYCQQSYTTPPTFGQGTKVEIKGGSSRSSSSGGGGSGGGGEVQLVESGGGLVQPGGSLRLSCAASGFTFTSTGISWVRQAPGKGLEWVGRIYPTNGSTNYADSVKGRFTISADTSKNTAYLQMNSLRAEDTAVYYCARTYGIYDLYVDYTEYVMDYWGQGTLVTVSSGGSSRSSSSGGGGSGGGGDIQMTQSPSSLSASGGSGQITVTCRASGFYPWNITLSWRQDGVSLSHDTQQWGDVLPDGQGTYQTWVATRISQGEEQRFTCYMEHSGQHSTHPVPSGKGSHHHHHH
